In patent US20020012949A1, “Assay systems for leptin-enhancing agents” (priority 1997, published 2002):

Target: T1, OB-R (Homo sapiens, UniProt P48357)
T1 construct: The cytoplasmic domain and full-length human OB-R was cloned by PCR; expressed in transfected cells; host or cells: COS-7
T1 sequence (P48357 22-1165): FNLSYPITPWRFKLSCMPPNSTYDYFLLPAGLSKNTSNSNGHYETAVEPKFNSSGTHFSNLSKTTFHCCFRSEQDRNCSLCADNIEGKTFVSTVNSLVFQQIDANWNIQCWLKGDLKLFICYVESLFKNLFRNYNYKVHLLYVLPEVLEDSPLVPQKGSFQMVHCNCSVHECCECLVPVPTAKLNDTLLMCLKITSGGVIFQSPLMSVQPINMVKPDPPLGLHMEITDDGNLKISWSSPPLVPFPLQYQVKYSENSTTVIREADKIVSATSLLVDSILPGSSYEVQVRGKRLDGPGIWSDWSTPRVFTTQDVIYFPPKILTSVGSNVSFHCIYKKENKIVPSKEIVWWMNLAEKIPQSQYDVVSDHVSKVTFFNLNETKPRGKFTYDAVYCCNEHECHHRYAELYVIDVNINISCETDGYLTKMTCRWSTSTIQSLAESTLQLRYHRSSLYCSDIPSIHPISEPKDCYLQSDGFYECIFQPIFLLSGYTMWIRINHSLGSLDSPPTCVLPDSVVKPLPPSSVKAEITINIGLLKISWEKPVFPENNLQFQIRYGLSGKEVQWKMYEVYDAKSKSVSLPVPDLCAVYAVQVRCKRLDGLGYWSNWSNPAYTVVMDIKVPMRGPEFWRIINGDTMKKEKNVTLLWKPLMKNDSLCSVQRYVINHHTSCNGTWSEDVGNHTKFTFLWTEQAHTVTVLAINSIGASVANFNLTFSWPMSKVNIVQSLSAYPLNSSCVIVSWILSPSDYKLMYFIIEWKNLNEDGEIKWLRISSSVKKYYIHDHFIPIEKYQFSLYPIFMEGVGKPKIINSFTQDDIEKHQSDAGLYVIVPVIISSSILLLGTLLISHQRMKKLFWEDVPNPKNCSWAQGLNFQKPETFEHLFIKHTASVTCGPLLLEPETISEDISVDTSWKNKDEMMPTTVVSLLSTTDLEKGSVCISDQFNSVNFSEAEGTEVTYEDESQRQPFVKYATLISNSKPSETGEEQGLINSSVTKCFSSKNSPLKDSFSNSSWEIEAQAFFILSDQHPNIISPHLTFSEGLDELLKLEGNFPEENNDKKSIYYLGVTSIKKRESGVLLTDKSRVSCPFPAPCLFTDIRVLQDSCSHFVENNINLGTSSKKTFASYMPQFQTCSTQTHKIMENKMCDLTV
Assay: Immunoprecipitation and western blotting of tyrosine phosphorylation, leptin-stimulated COS cells expressing OB-R
Type: cell-based
Conditions: 100 ng/ml human leptin for 10 min
Procedure: The cytoplasmic domain and full-length human OB-R was cloned by PCR using human fetal liver and adipocyte cDNA (Clontech) and cloned into the expression vectors pCMX and pMT21. Chimeric receptors were constructed by fusing the extracellular domain and transmembrane domain of TrkC (amino acids 1 to 458) to the cytoplasmic domain of OB-R (amino acids 865-1165). A triple myc epitope tag was added at the C-terminus of all OB-R constructs (18). Truncation and point mutant constructs were generated by PCR and the sequences of all constructs were verified. Expression constructs were transfected into COS-7 cells using lipofectamine (GIBCO-BRL); 36-48 hours after transfection, cells were starved for either 2 hour,s for chimeric receptors or overnight for full-length receptors prior to stimulation.
Cells were stimulated with 50 ng/ml of human NT-3 for 15 min or 100 ng/ml of human leptin (R&D Systems) for 10 min. Cells were then lysed in a 1% Brij 96 buffer and receptor was immunoprecipitated with anti-myc antibody 9E10 (18) followed by protein G-sepharose (Pharmacia). Unbound lysate was then immunoprecipitated with anti-P-Tyr antibody (UBI, Lake Placid) or agarose-conjugated anti-SHP-2 antibody (Santa Cruz Biotechnology). […] Endogenous STAT3, SHP-2, Jak1 and Jak2 is being detected in all immunoblotting experiments. […]

Substance: leptin: the product of the obese gene, secreted by adipocytes; ligand of OB-R
- tyrosine phosphorylation of receptor, STAT3 and SHP-2: results in phosphorylation of the receptor, STAT3 and SHP-2
